Experimental data from PMC3521654, “The Nuclear Chaperone Nucleophosmin Escorts an Epstein-Barr Virus Nuclear Antigen to Establish Transcriptional Cascades for Latent Infection in Human B Cells” (PLoS Pathogens, 2012).

T1: GST-E2 300–360 (Epstein-Barr virus, UniProt P12978 300-360)
T1 construct: source: E. coli BL21 (DE3) pLys, purified (GST-sepharose)
T1 sequence: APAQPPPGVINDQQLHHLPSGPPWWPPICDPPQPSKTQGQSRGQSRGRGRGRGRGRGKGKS

T2: EBNA2 from the transfected expression vector (pSG5-EBNA2, E2) (Epstein-Barr virus, UniProt P12978 1-487)
T2 sequence (looked up): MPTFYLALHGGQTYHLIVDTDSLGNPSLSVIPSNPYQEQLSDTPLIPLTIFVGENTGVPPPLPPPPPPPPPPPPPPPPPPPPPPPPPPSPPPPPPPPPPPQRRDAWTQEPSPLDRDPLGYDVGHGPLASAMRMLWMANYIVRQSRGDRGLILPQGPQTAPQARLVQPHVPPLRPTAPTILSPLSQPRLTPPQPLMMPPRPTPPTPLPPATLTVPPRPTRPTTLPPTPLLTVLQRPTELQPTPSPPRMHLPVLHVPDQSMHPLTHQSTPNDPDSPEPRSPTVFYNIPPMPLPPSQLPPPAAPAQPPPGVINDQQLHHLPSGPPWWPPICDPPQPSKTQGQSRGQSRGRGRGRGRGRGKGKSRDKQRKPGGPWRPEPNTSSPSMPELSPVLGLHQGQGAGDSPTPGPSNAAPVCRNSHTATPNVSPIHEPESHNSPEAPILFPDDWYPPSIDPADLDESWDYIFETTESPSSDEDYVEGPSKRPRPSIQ

B1: flag-tagged NPM1 truncated deletion mutant C2 (1–194) (domain or fragment, UniProt P06748 1-194, looked up)
chain: MEDSMDMDMSPLRPQNYLFGCELKADKDYHFKVDNDENEHQLSLRTVSLGAGAKDELHIVEAEAMNYEGSPIKVTLATLKMSVQPTVSLGGFEITPPVVLRLKCGSGPVHISGQHLVAVEEDAESEDEEEEDVKLLSISGKRSAPGGGSKVPQKKVKLAADEDDDDDDEEDDDEDDDDDDFDDEEAEEKAPVKK
notes: source: BJAB, transfected, in lysate
B2: flag-tagged NPM1 truncated deletion mutant C3 (1–120) (domain or fragment, UniProt P06748 1-120, looked up)
chain: MEDSMDMDMSPLRPQNYLFGCELKADKDYHFKVDNDENEHQLSLRTVSLGAGAKDELHIVEAEAMNYEGSPIKVTLATLKMSVQPTVSLGGFEITPPVVLRLKCGSGPVHISGQHLVAVE
notes: also called N-terminal oligomerization domain (OD); source: BJAB, transfected, in lysate

Tests used:
GST-E2 300–360 = biological target: T1, GST-E2 300–360; experiment: pull-down; conditions: one partner purified
[1] = biological target: T2, EBNA2 from the transfected expression …; experiment: cell-based or functional assay

Binder | percent of input pulled down (GST-E2 300–360) [%] | co-activation of EBNA2-dependent LMP1-Luc reporter activity in BJAB cells [1] [fold]
B1 | ~2 | 2.5
B2 | ~2 | 2.5
